Laboratory results taken from patent US20190002511.

Assays:
[1] = system: ultravariegin
[2] = system: avathrin K10R
[3] = system: avathrin (Amblyomma variegatum thrombin inhibitor)
[4] = system: β-avathrin
β-avathrin, sequence (chain, as listed by the source): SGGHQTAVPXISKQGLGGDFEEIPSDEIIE

avathrin K10R, sequence (chain, as listed by the source K10R): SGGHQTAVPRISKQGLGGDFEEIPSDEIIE
avathrin (Amblyomma variegatum thrombin inhibitor), sequence (chain, as listed by the source): as the sequence (chain, as listed by the source K10R) above, with R10K counted along it
ultravariegin, sequence (chain, as listed by the source): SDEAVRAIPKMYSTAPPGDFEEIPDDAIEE

Question: For human α-thrombin (recombinant), which “time to complete cleavage by thrombin” value [1] is on record?
Answer: Its value is “At 18 h, ultravariegin was completely cleaved”.

Question: What about the “time to complete cleavage by thrombin” value [2] of the same substance?
Answer: The value was “resulting in complete cleavage within 3 h”.

Question: And the “time to complete cleavage by thrombin (30:1 peptide to enzyme)” value [3]?
Answer: Its value is “avathrin was completely cleaved at ~10 h”.

Question: What about the cleavage by thrombin [4] of the same substance?
Answer: Its cleavage by thrombin is “it was not cleaved by thrombin for up to 72 h”.
